The target of assay [1] is T1, human FXI zymogen (human, UniProt P03951 19-625). Nature of the assay: cell-based or functional assay.
Assay [2] has as its target T2, human FXI activated (human Factor XIa, full length) (human, UniProt P03951 19-387; P03951 388-625). Nature of the assay: cell-based or functional assay.
Assay [3] concerns the target T1, human FXI zymogen. In words: solution equilibrium titration (SET), MSD ECL read-out, 1:2 fit, n=3; apparent KD (avidity possible).
For assay [4], the target named is T2, human FXI activated (human Factor XIa, …). The assay is described as above.
The target of assay [5] is T3, activated cynomolgus monkey FXI (cynomolgus monkey, UniProt A0A2K5VVW4 19-387; A0A2K5VVW4 388-625).
T3 construct: also called cynomolgus monkey FXIa; cynomolgus monkey FXI (active form)
T3 sequence (chain, as listed by the source, form in doubt, chain 1 of 2): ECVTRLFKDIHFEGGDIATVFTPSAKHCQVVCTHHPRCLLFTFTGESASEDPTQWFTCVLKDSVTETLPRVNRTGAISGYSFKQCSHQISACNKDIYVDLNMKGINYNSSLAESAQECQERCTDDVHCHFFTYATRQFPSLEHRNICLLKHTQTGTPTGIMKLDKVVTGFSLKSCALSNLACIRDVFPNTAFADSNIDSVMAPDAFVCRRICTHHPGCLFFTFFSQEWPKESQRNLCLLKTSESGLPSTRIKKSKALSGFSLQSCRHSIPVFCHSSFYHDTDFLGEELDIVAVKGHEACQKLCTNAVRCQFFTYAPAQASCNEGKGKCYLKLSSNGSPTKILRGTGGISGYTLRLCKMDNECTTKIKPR
T3 sequence (chain, as listed by the source, form in doubt, chain 2 of 2): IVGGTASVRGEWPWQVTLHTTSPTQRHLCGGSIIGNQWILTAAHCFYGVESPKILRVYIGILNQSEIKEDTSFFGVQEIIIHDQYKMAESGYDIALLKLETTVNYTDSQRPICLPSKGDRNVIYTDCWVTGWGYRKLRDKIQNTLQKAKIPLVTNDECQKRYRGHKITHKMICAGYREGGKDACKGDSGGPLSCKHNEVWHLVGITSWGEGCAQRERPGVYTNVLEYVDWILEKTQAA
Nature of the assay: solution equilibrium titration (SET); apparent KD, N=2; activated cynomolgus monkey FXI; apparent KD, SET, N=2.

The target in assay [6] is T4, cynomolgus monkey FXI zymogen (cynomolgus monkey, UniProt A0A2K5VVW4 19-624).
T4 construct: also called free FXI (FXIf) in cynomolgus plasma
T4 sequence (A0A2K5VVW4 entry or part of it): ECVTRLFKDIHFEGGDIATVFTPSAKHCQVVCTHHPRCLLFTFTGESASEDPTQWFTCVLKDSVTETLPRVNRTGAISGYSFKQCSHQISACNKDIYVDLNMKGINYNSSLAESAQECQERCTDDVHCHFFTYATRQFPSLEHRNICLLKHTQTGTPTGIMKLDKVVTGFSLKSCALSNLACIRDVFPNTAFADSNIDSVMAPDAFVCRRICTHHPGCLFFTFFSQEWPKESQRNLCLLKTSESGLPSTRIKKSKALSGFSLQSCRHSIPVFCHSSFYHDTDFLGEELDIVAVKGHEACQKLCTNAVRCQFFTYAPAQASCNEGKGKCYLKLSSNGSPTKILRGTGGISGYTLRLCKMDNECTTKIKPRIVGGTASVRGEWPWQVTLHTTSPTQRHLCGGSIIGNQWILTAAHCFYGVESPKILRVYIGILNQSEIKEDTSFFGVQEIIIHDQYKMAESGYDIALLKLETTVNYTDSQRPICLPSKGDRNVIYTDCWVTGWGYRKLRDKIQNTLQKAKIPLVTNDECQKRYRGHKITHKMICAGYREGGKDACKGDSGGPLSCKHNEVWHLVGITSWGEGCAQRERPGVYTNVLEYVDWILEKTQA
In words: solution equilibrium titration (SET); apparent KD, N=2; cynomolgus monkey FXI zymogen; apparent KD, SET, N=2.

The target of assay [7] is T5, human FXI catalytic domain (residues 388-625, Swissprot P03951) (human, UniProt P03951 388-625).
T5 construct: it is treated here as the same molecule; also called FXI CD; FXIa CD
T5 sequence (P03951 388-625 limits assumed, form in doubt, one chain of several): as the sequence (chain, as listed by the source, form in doubt, chain 2 of 2) above, with I59S, D156E, L225V, A238V counted along it
Nature of the assay: SPR (BIACORE T200), IgG captured by goat anti-human IgG-Fc, FXI catalytic domain 0-200 nM as analyte, 25 C, 1:1 model, n=2.

For assay [8], the target named is T5, human FXI catalytic domain (residues …). In words: SPR (BIACORE T200), Fab amine-coupled on CM5 chip, FXI catalytic domain 0-200 nM as analyte, 25 C, 1:1 model, n=3. In general terms: SPR reads the build-up and loss of mass on a sensor chip optically.
The target in assay [9] is T1, human FXI zymogen. In words: solution equilibrium titration (SET), MSD ECL read-out, 1:1 fit, n=3.
For assay [10], the target named is T2, human FXI activated (human Factor XIa, …). Described as above.
Assay [11] has as its target T1, human FXI zymogen. Nature of the assay: SET.
Assay [12] concerns the target T1, human FXI zymogen. Nature of the assay: SET KD compared with SPR KD for the FXI catalytic domain.
Assay [13] addresses T2, human FXI activated (human Factor XIa, …). Described as above.

T1 sequence (P03951 19-625 C226S limits assumed): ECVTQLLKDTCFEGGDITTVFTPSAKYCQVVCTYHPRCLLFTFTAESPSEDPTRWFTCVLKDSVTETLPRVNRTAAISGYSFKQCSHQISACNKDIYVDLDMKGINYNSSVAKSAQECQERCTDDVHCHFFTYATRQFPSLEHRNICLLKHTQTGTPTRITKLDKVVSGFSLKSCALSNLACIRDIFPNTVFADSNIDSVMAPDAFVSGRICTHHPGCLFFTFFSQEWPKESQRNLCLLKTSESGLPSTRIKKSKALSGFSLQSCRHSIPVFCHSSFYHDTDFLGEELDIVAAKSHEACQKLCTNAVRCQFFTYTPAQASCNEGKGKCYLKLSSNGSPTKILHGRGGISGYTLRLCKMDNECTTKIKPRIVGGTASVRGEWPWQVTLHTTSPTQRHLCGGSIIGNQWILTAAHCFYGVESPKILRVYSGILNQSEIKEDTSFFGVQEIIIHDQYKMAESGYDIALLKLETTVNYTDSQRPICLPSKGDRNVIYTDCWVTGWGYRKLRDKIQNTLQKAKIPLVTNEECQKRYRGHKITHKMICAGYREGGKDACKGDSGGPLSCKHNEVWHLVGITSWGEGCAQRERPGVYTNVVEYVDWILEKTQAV
T2 sequence (P03951 19-387 C226S limits assumed, form in doubt, chain 1 of 2): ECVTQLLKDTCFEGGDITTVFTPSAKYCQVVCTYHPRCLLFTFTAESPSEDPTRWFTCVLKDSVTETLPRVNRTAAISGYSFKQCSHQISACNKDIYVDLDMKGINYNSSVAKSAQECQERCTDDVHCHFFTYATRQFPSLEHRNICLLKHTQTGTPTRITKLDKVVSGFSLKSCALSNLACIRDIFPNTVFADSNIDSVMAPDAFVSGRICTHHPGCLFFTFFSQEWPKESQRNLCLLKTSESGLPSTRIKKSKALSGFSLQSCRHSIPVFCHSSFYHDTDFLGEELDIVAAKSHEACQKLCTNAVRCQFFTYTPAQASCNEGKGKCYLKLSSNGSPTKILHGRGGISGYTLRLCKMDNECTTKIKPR
T2 sequence (P03951 388-625 limits assumed, form in doubt, chain 2 of 2): as the sequence (chain, as listed by the source, form in doubt, chain 2 of 2) above, with I59S, D156E, L225V, A238V counted along it

B1: NOV1401 (human IgG1/lambda antibody with D265A and P329A in the Fc) (antibody, V domains shown)
VH: QVQLLESGGGLVQPGGSLRLSCAASGFTFSTAAMSWVRQAPGKGLEWVSGISGSGSSTYYADSVKGRFTISRDNSKNTLYLQMNSLRAEDTAVYYCARELSYLYSGYYFDYWGQGTLVTVSS
VL: QSVLTQPPSASGTPGQRVTISCSGSSSNIGSNDVSWYQQLPGTAPKLLIYKNYNRPSGVPDRFSGSKSGTSASLAISGLQSEDEADYYCSAWDQRQFDVVFGGGTKLTVLG
notes: also called NOV1401-IgG; NOV1401-Antibody
Consider B1, for which the “IC50, inhibition of thrombin generation in the TGA with pooled human plasma” value in assay [1] turned out to be 24 nM. Moreover, the “IC50, inhibition of the enzymatic activity of full length human FXIa (cleavage of the fluorescent peptide D-Leu-Pro-Arg*Rh110-D-Pro)” value in assay [2] is about 0.16 nM. In addition, the Kd in assay [3] came to 0.0013 nM; in assay [4], 0.0047 nM; in assay [5], 0.0125 nM; in assay [6], 0.005 nM; in [7] it was 21 nM. Besides, the koff (commonly the rate constant with which the complex falls apart) in assay [7] amounted to 0.00088 s⁻¹. The kon (in general, the rate constant with which the complex forms) in assay [7] worked out at 42000 M⁻¹ s⁻¹.

B2: NOV1401-Fab (Fab, V domains shown)
VH: QVQLLESGGGLVQPGGSLRLSCAASGFTFSTAAMSWVRQAPGKGLEWVSGISGSGSSTYYADSVKGRFTISRDNSKNTLYLQMNSLRAEDTAVYYCARELSYLYSGYYFDYWGQGTLVTVSS
VL: QSVLTQPPSASGTPGQRVTISCSGSSSNIGSNDVSWYQQLPGTAPKLLIYKNYNRPSGVPDRFSGSKSGTSASLAISGLQSEDEADYYCSAWDQRQFDVVFGGGTKLTVLG
notes: also called Fab of the NOV1401 antibody; Fab portion of NOV1401
B2: the Kd came out at 19 nM in [8], 0.062 nM in [9] and 0.305 nM in [10]. The koff in assay [8] was found to be 0.00061 s⁻¹. The molecule further registered a kon in assay [8] of 32000 M⁻¹ s⁻¹. In addition, the “fold higher affinity than to the activated FXI” value in [11] was determined as 5 fold. The “fold higher affinity than to the catalytic domain” value in [12] stood at 300 fold; in assay [13], 66 fold.
